According to patent US20220412960A1:

Molecular target: PAR-1 receptor on human platelets (human) (UniProt P25116)
Test: cell-based or functional assay

PAR-1 receptor on human platelets (human), sequence (P25116 42-425): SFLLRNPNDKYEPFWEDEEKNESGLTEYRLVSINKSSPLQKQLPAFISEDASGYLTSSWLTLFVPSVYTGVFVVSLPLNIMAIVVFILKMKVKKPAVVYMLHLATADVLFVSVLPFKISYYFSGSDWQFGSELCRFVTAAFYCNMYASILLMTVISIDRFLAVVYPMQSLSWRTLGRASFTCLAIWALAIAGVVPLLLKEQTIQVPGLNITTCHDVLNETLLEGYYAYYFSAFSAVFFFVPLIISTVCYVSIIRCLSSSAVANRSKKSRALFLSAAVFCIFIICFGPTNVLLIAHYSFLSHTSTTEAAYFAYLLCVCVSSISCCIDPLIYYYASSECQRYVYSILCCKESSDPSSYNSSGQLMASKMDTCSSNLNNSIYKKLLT

platelet aggregation, light transmission aggregometry, washed platelets of sepsis patients at ICU admission, 10 µM TRAP-6: > 21.2% | platelet aggregation, light transmission aggregometry, washed platelets of sepsis patients at ICU admission, 10 µM TRAP-6 (mean): 34.2%
Substance: thrombin receptor agonist peptide TRAP-6
